Patent US20080268507

Tests used:
Experiment in all cases: cleavage_in_vitro
[1] = tested on: T1, Nt.CviPII (His+) (Chlorella virus NYs-1); details: NEBuffer 4 (10 mM Mg acetate), 37 C 1 h
T1 sequence: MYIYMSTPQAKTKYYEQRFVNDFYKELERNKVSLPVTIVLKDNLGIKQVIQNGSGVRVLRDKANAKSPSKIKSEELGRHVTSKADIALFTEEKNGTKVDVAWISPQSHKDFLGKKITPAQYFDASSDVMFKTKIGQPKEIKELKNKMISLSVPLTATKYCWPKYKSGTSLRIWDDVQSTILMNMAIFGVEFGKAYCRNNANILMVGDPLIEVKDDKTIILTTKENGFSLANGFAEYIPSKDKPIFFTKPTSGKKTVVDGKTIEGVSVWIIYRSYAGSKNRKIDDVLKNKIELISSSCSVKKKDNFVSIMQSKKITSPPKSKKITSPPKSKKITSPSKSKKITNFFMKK

[2] = tested on: NPN329 (Nt.CviPII C-terminal truncation) (Chlorella virus NYs-1); details: 37 C 1 h; same specificity as wild type
[3] = tested on: NPN297 (Nt.CviPII C-terminal truncation) (Chlorella virus NYs-1); details: 37 C 1 h; same specificity as wild type

Substance: pUC19 plasmid
- activity [1]: 9410 units/mg
- activity [2]: 1400 units/mg
- activity [3]: 2600 units/mg
